{
  "source": "paper PMC2726748",
  "about": "(Journal of molecular biology, 2009)",
  "proteins": {"B1": {"name": "recombinant mouse apoptosis inducing factor AIFΔ1–101 (domain or fragment, UniProt Q9Z0X1 102-612, looked up)", "chain": "GLSPEEKQRRAIASATEGGSVPQIRAPSHVPFLLIGGGTAAFAAARSIRARDPGARVLIVSEDPELPYMRPPLSKELWFSDDPNVTKTLQFRQWNGKERSIYFQPPSFYVSAQDLPNIENGGVAVLTGKKVVHLDVRGNMVKLNDGSQITFEKCLIATGGTPRSLSAIDRAGAEVKSRTTLFRKIGDFRALEKISREVKSITVIGGGFLGSELACALGRKSQASGIEVIQLFPEKGNMGKILPQYLSNWTMEKVKREGVKVMPNAIVQSVGVSGGRLLIKLKDGRKVETDHIVTAVGLEPNVELAKTGGLEIDSDFGGFRVNAELQARSNIWVAGDAACFYDIKLGRRRVEHHDHAVVSGRLAGENMTGAAKPYWHQSMFWSDLGPDVGYEAIGLVDSSLPTVGVFAKATAQDNPKSATEQSGTGIRSESETESEASEITIPPSAPAVPQVPVEGEDYGKGVIFYLRDKVVVGIVLWNVFNRMPIARKIIKDGEQHEDLNEVAKLFNIHED"}},
  "molecular_target": "the molecule itself",
  "assay": "crystal structure",
  "data": [
    {"protein": "B1", "values": [
      {"measurement": "stoichiometry N", "result": 2}
    ]}
  ]
}
